The series has as its system F1*sub RNA substrate (template-directed ligation). As to the kind of experiment: fraction ligated after 30 min (ligated reads / total reads); higher = more ligase activity; sequences stand for … in GAGACCGCAACTGAAAAGTTGT…AGTTCTGCACGTAGAAGCAAAAGGC
The settings on record: 42 °C. In short, it runs like this: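 Templates from an oligo pool were PCR-amplified, transcribed with T7 and gel-purified to give the ribozyme variants. Ligated and unligated products were separated on gel, reverse transcribed using barcoded primers, and read on a MiSeq. A quality filter of ≥20 was applied to core bases. Fraction ligated was taken as ligated reads as a share of all reads per variant.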
On to “TATCACTTGTCTAAGCACTTTGGTGGGTTGA [3d1851]”, for which the fraction ligated is 0.108. The value for “TATCACTTGTCTAAGCATTTGGATGGGTTGA [3d1848]” was 0.818. To “TATCACTTGTCTAAGCCTTTGGATGGGTTGA [3d1847]” belongs 0.776; to “TATCACTTGTCTAGAACTTTGGATGGGTTGA [3d1826]”, 0.796. The value for “TATCACTTGTCTAGACACTTGGATGGGTTGA [3d1829]” was 0.796; that for “TATCACTTGTCTAGACACTTTGATGGGTTGA [3d1830]” was 0.739; that for “TATCACTTGTCTAGACACTTTGGAGGGTTGA [3d1832]” was 0.218. Consider “TATCACTTGTCTAGACACTTTGGATGGGTTA [3d1834]”, for which the fraction ligated came to 0.738. Take “TATCACTTGTCTAGACACTTTGGATGGGTTG [3d1835]”: the fraction ligated was determined as 0.76.

Consider “TATCACTTGTCTAGACACTTTGGATGGGTTGA [2d195]”, for which the fraction ligated stood at 0.799. Turning to “TATCACTTGTCTAGACACTTTGGATGGTTGA [3d1833]”, the fraction ligated turned out to be 0.361. The value for “TATCACTTGTCTAGACACTTTGGTGGGTTGA [3d1831]” was 0.195; that for “TATCACTTGTCTAGACATTTGGATGGGTTGA [3d1828]” was 0.814; that for “TATCACTTGTCTAGACCTTTGGATGGGTTGA [3d1827]” was 0.737. On to “TATCACTTGTCTAGCACTTTGGATGGGTTGA [3d1825]”, for which the fraction ligated worked out at 0.754. The value for “TATCACTTGTCTGACACTTTGGATGGGTTGA [3d1823]” was 0.77.

“TATCACTTGTGAAACACTTTGGATGGGTTGA [3d1719]” yielded a fraction ligated of 0.842. To “TATCACTTGTGAAGAACTTTGGATGGGTTGA [3d1721]” belongs 0.851; to “TATCACTTGTGAAGACACTTGGATGGGTTGA [3d1724]”, 0.801.

Regarding “TATCACTTGTGAAGACACTTTGATGGGTTGA [3d1725]”, the fraction ligated was 0.818. The value for “TATCACTTGTGAAGACACTTTGGAGGGTTGA [3d1727]” was 0.0789; that for “TATCACTTGTGAAGACACTTTGGATGGGTTA [3d1729]” was 0.823; that for “TATCACTTGTGAAGACACTTTGGATGGGTTG [3d1730]” was 0.854. The sequence “TATCACTTGTGAAGACACTTTGGATGGGTTGA [2d180]” showed a fraction ligated of 0.853. As to “TATCACTTGTGAAGACACTTTGGATGGTTGA [3d1728]”, the fraction ligated was found to be 0.243. Sequence “TATCACTTGTGAAGACACTTTGGTGGGTTGA [3d1726]” displayed a fraction ligated of 0.102.

The sequence “TATCACTTGTGAAGACATTTGGATGGGTTGA [3d1723]” yielded a fraction ligated of 0.855. For “TATCACTTGTGAAGACCTTTGGATGGGTTGA [3d1722]”, the fraction ligated was found to be 0.823. Sequence “TATCACTTGTGAAGCACTTTGGATGGGTTGA [3d1720]” came in with a fraction ligated of 0.845. The value for “TATCACTTGTGAGACACTTTGGATGGGTTGA [3d1718]” was 0.841; that for “TATCACTTGTGTAAAACTTTGGATGGGTTGA [3d1744]” was 0.856.

With “TATCACTTGTGTAAACACTTGGATGGGTTGA [3d1747]”, the fraction ligated came to 0.816.

In turn, “TATCACTTGTGTAAACACTTTGATGGGTTGA [3d1748]” displayed a fraction ligated of 0.831.

As for “TATCACTTGTGTAAACACTTTGGAGGGTTGA [3d1750]”, the fraction ligated worked out at 0.0713. The sequence “TATCACTTGTGTAAACACTTTGGATGGGTTA [3d1752]” registered a fraction ligated of 0.805. In the case of “TATCACTTGTGTAAACACTTTGGATGGGTTG [3d1753]”, the fraction ligated was found to be 0.859.

“TATCACTTGTGTAAACACTTTGGATGGTTGA [3d1751]” showed a fraction ligated of 0.328.

As for “TATCACTTGTGTAAACACTTTGGTGGGTTGA [3d1749]”, the fraction ligated stood at 0.0929. Turning to “TATCACTTGTGTAAACATTTGGATGGGTTGA [3d1746]”, the fraction ligated turned out to be 0.833.

In the case of “TATCACTTGTGTAAACCTTTGGATGGGTTGA [3d1745]”, the fraction ligated turned out to be 0.807.

The record behind these values is the supplement of paper PMC6755084.
